Among the data in article PMC6282620, “Structural and biochemical characterization of Plasmodium falciparum Hsp70‐x reveals functional versatility of its C‐terminal EEVN motif” (Proteins, 2018) are koff, kon and Kd values, retold here.

One assay has as its target PfHsp70-x C-terminal truncated version with a missing EEVN motif (Plasmodium falciparum). Description: SPR; PfHsp70-x or PfHsp70-xT immobilised on ProteOn GLC chips as ligands; peptides as analytes at 1.25-20 nM, 50 uL/min; 25 °C; PBS-Tween; with 2 mM ADP. On the technique in general: SPR reads the build-up and loss of mass on a sensor chip optically.
In the case of ALLLMYRR [peptide ALLLMYRR], the koff (commonly the first-order rate constant of dissociation) was found to be 1.04e-05 s⁻¹.
Still for that read-out and setting: under ANNNMYRR [peptide ANNNMYRR] stands 1.04e-05 s⁻¹.
Consider NRNNTG [peptide NRNNTG], for which the koff amounted to 1.01e-08 s⁻¹ and the kon (in general, the second-order rate constant of association) is 5.96 M⁻¹ s⁻¹.
On the same counts, the results for NRLLTG [peptide NRLLTG] are 1e-05 s⁻¹ and 6 M⁻¹ s⁻¹.

The target of another assay is Plasmodium falciparum Hsp70-x (full length) (Plasmodium falciparum). Described as above.
In turn, ALLLMYRR [peptide ALLLMYRR] came in with an off-rate (koff) of 0.00282 s⁻¹.
As to ANNNMYRR [peptide ANNNMYRR], the off-rate (koff) was found to be 0.00386 s⁻¹ and the kon is 1.74e+06 M⁻¹ s⁻¹.
On the same counts, the results for NRNNTG [peptide NRNNTG] are 1.03e-07 s⁻¹ and 2.55 M⁻¹ s⁻¹.
In the case of NRLLTG [peptide NRLLTG], the koff was 1.01e-05 s⁻¹ and the kon came out at 1.62 M⁻¹ s⁻¹.

A further assay addresses PfHsp70-x C-terminal truncated version with a missing EEVN motif (Plasmodium falciparum). Briefly: SPR; PfHsp70-x or PfHsp70-xT immobilised on ProteOn GLC chips as ligands; peptides as analytes at 1.25-20 nM, 50 uL/min; 25 °C; PBS-Tween; no nucleotide.
The molecule ALLLMYRR [peptide ALLLMYRR] returned a koff of 1.04e-05 s⁻¹.
Same read-out and setting: under ANNNMYRR [peptide ANNNMYRR] stands 1.04e-05 s⁻¹.
For NRNNTG [peptide NRNNTG], the dissociation rate constant (koff) came to 2.79e-08 s⁻¹ and the kon worked out at 3.52 M⁻¹ s⁻¹.
The molecule NRLLTG [peptide NRLLTG] yielded an off-rate constant (koff) of 8.67e-06 s⁻¹ and a kon of 3.15 M⁻¹ s⁻¹.

The next assay has as its target Plasmodium falciparum Hsp70-x (full length) (Plasmodium falciparum). The description is as above.
As for ALLLMYRR [peptide ALLLMYRR], the koff amounted to 1.28e-06 s⁻¹.
Turning to ANNNMYRR [peptide ANNNMYRR], the koff was found to be 0.000732 s⁻¹ and the kon was 331000 M⁻¹ s⁻¹.
On the same counts, the results for NRNNTG [peptide NRNNTG] are 9.49e-07 s⁻¹ and 2.43 M⁻¹ s⁻¹.
The corresponding values for NRLLTG [peptide NRLLTG] are 9.97e-06 s⁻¹ and 3.86 M⁻¹ s⁻¹.

For the next assay, the target named is PfHsp70‐x C‐terminal truncated version with a missing EEVN motif (Plasmodium falciparum). Description: SPR; PfHsp70‐x or PfHsp70‐xT immobilised on ProteOn GLC chips, peptides as analytes at 1.25-20 nM, 25°C, PBS‐Tween pH 7.4, with 2 mM ATP.
Take NRNNTG [peptide NRNNTG]: the Kd – broadly, the free concentration of one partner at which half of the binding sites on the other are occupied at equilibrium, for simple one-to-one binding – worked out at 107 nM.
Same read-out and setting: then NRLLTG [peptide NRLLTG], with 1800 nM.

The next assay has as its target Plasmodium falciparum Hsp70‐x (full length) (Plasmodium falciparum). The assay is described as above.
Consider ALLLMYRR [peptide ALLLMYRR], for which the Kd is 60600 nM.
Same read-out and setting: under ANNNMYRR [peptide ANNNMYRR] stands 783 nM; under NRNNTG [peptide NRNNTG], 137 nM; under NRLLTG [peptide NRLLTG], 1700 nM.

In another assay the target is PfHsp70-x C-terminal truncated version with a missing EEVN motif (Plasmodium falciparum). Briefly: SPR; PfHsp70-x or PfHsp70-xT immobilised on ProteOn GLC chips as ligands; peptides as analytes at 1.25-20 nM, 50 uL/min; 25 °C; PBS-Tween; with 2 mM ATP.
In turn, NRNNTG [peptide NRNNTG] showed a koff of 1.01e-05 s⁻¹ and a kon of 9.37 M⁻¹ s⁻¹.
On the same counts, the results for NRLLTG [peptide NRLLTG] are 0.000161 s⁻¹ and 31.8 M⁻¹ s⁻¹.

The target in the next assay is Plasmodium falciparum Hsp70-x (full length) (Plasmodium falciparum). The description is as above.
Regarding ALLLMYRR [peptide ALLLMYRR], the koff was determined as 1.6e-06 s⁻¹.
With ANNNMYRR [peptide ANNNMYRR], the off-rate (koff) was found to be 0.00567 s⁻¹ and the kon stood at 7240 M⁻¹ s⁻¹.
The corresponding values for NRNNTG [peptide NRNNTG] are 1.01e-06 s⁻¹ and 7.33 M⁻¹ s⁻¹.
The corresponding values for NRLLTG [peptide NRLLTG] are 1.01e-05 s⁻¹ and 1.21 M⁻¹ s⁻¹.

In the next assay the target is PfHsp70‐x C‐terminal truncated version with a missing EEVN motif (Plasmodium falciparum). Description: SPR; PfHsp70‐x or PfHsp70‐xT immobilised on ProteOn GLC chips, peptides as analytes at 1.25-20 nM, 25°C, PBS‐Tween pH 7.4, with 2 mM ADP.
For ALLLMYRR [peptide ALLLMYRR], the Kd was 313 µM.
Still for that read-out and setting: then ANNNMYRR [peptide ANNNMYRR], with 443 µM; and NRNNTG [peptide NRNNTG], with 0.00169 µM.
Still for that read-out and setting: under NRLLTG [peptide NRLLTG] stands 0.17 µM.

The next assay concerns the target Plasmodium falciparum Hsp70‐x (full length) (Plasmodium falciparum). The assay is described as above.
ALLLMYRR [peptide ALLLMYRR] had a Kd of 2820 nM.
Consider ANNNMYRR [peptide ANNNMYRR], for which the Kd amounted to 2.21 nM.
Same read-out and setting: then NRNNTG [peptide NRNNTG], with 4.31 nM.
Same read-out and setting: then NRLLTG [peptide NRLLTG], with 620 nM.

The target of the next assay is PfHsp70‐x C‐terminal truncated version with a missing EEVN motif (Plasmodium falciparum). Briefly: SPR; PfHsp70‐x or PfHsp70‐xT immobilised on ProteOn GLC chips, peptides as analytes at 1.25-20 nM, 25°C, PBS‐Tween pH 7.4, no nucleotide.
As to ALLLMYRR [peptide ALLLMYRR], the dissociation constant (Kd) worked out at 542 µM.
The same measure, in the same setting: under ANNNMYRR [peptide ANNNMYRR] stands 626 µM; under NRNNTG [peptide NRNNTG], 0.00792 µM.
NRLLTG [peptide NRLLTG]: the Kd was 0.28 µM.

For the next assay, the target named is Plasmodium falciparum Hsp70‐x (full length) (Plasmodium falciparum). Described as above.
ALLLMYRR [peptide ALLLMYRR] returned a Kd of 1470 nM.
On the same count and under the same terms, under ANNNMYRR [peptide ANNNMYRR] stands 2.21 nM; under NRNNTG [peptide NRNNTG], 6.91 nM; under NRLLTG [peptide NRLLTG], 250 nM.
